Source: patent publication US9163063B2, “Peptides and nanoparticles for therapeutic and diagnostic applications” (Trustees of Dartmouth College, priority 2009, dated 2015)
Ends that are not written are not given here. * marks the point of attachment. Biotin = O=C1N[C@H]2[C@H](CS[C@H]2CCCCC(=O)*)N1

Columns and labels:
EGFR = EGFR expression after integrin-tail peptide in AsPC1 cells; type: cell-based, human; conditions: AsPC1 pancreatic adenocarcinoma cells
Description: In addition, with its PDZ domain, GIPC is associated with a vast list of transmembrane receptors, including integrin α6 and α 5 that are expressed in several pancreatic cancer cell lines. […] EGFR is a receptor tyrosine kinase highly expressed in pancreatic cancer cells and is a prognostic factor for overall survival. […] A peptide designed to disrupt the interaction between the PDZ domain and the cytoplasmic tail of integrin α 5 and α 6 (KERLTSDA, SEQ ID NO. 8) was utilized.

[1] = molecular target: T1, PDZ domain of GIPC/synectin (Homo sapiens, UniProt O14908); experiment: Phage ELISA / phage binding assay with N-terminal biotinylated peptides; conditions: GIPC-PDZ T7 phage
T1 construct: dsDNA encoding the PDZ domain of GIPC/synectin was double-digested with EcoRI and HindIII; made in house; host or cells: T7 phage grown in E. coli BLT5403
T1 sequence (O14908 133-213 limits assumed): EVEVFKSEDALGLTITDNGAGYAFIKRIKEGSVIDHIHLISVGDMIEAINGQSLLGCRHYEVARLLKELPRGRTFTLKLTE
Procedure: dsDNA encoding the PDZ domain of GIPC/synectin was double-digested with EcoRI and HindIII, and the DNA (0.8 μL of a 45 nM (7.7 ng/μL) solution) was used in the ligation reaction with the T7 Select 10-3 vector arms (Novagen, 0.5 μL), along with 10× ligase buffer (0.25 μL); ATP (10 mM, 0.25 μL, final concentration 1 mM); DTT (100 mM, 0.25 μL); and T4 DNA ligase (0.5 μL, 1 unit/μL). The sample was incubated at 16° C. for 16 h. The T7 phage packaging reaction was performed by adding packaging extract (Novagen, 12.5 μL, or half the manufacturer's recommended amount) to the ligation reaction sample (2.5 μL) and allowing it to incubate for 2 h at room temperature. The reaction was stopped by the addition of a sterile LB medium (135 μL). A plaque assay was performed to determine the number of recombinant phage generated. E. coli BTL5403 was grown at 37° C. with shaking in LB/Amp50 medium (10 mL) until OD˜1.0 was reached. Top agarose (10 mL) was melted and equilibrated to this temperature. A series of dilutions was prepared prior to plating the phage. The first dilution was generated by adding packaged phage (10 μL) to LB/Amp50 (990 μL) for a total of 100-fold dilution (10^2). […] Plaques generated were counted to determine the titer and the number of recombinants generated. […]

Row | Substance | EGFR expression (EGFR) | binding to the PDZ domain of GIPC/synectin [1]
1 | KERLTSDA [K-E-R-L-T-S-D-A] | down regulation of EGFR | 
2 | KKETEV (Biotin-KKETEV) |  | not recognized
3 | KKETAV |  | not recognized
